The results in this text go back to article PMC2702006 (The Febs Journal, 2009).

Series [1] concerns the molecule itself. Put plainly: cross-linking.
Series [2] concerns the molecule itself. The series can be described thus: cell-based or functional assay.
Series [3] concerns the molecule itself. Put plainly: FRET or BRET. In general terms: In BRET a luciferase serves as donor, and the signal depends on an acceptor being close.

B1: human Hsp90β A116N (natural protein)
chain: not shown
For the protein B1, the binding result in series [1] is listed as “binds”.

B2: human Hsp90β L24R (natural protein)
chain: not shown
In the case of B2, the “ATPase activity relative to wild-type Hsp90β” value in series [2] was 6.2 % activity relative to wild-type Hsp90β.

B3: pyrene-labelled human Hsp90β E20C-C366A-A116N (natural protein)
chain: not shown
modifications: N-(1-pyrene)-maleimide label at position 20 (E20C)
Turning to B3, the binding result in series [3] is listed as “binds”.

B4: human Hsp90β T110I (natural protein)
chain: not shown
As to B4, the binding result in series [1] is “binds”.
